From patent US20100203046A1 (Biogen, published 2010)

B1: chCB6-huIgG1 K334D (antibody, name in EU numbering)
heavy: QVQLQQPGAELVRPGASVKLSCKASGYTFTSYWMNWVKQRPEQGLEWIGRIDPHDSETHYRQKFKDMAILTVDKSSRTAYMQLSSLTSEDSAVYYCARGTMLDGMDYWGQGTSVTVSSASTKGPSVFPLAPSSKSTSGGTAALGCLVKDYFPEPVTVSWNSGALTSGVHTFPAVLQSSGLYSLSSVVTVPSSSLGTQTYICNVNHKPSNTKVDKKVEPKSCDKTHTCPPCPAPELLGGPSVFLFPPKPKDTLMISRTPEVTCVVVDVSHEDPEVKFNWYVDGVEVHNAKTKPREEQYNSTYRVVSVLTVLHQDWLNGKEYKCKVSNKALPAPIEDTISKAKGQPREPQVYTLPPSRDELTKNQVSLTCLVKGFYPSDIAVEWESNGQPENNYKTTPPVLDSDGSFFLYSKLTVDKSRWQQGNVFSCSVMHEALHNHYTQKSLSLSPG
light: QIVLTQSPAIMSASPGEKVTMTCRASSSVSHMHWYQQKSGTSPKRWIYDTSKLASGVPARFSGSGSGTSYSLTISSVEAEDAATYYCQQWSSNPLTFGAGTKLELKRTVAAPSVFIFPPSDEQLKSGTASVVCLLNNFYPREAKVQWKVDNALQSGNSQESVTEQDSKDSTYSLSSTLTLSKADYEKHKVYACEVTHQGLSSPVTKSFNRGEC
notes: copies: 2 + 2
B2: chCB6-huIgG1 K334Q (antibody, name in EU numbering)
heavy: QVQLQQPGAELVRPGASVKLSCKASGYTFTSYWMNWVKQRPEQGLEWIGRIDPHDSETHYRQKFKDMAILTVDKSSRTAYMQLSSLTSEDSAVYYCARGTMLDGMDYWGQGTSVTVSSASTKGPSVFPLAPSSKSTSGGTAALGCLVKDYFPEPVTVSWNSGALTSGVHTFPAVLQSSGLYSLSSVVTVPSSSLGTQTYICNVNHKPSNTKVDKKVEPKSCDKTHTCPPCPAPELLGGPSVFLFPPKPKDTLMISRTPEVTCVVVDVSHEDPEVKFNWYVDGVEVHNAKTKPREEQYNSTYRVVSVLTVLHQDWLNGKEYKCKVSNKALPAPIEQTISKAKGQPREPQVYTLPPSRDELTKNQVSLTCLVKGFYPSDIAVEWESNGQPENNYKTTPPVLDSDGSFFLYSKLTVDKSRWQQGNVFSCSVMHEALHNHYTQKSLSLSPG
light: B1 light
notes: copies: 2 + 2
B3: chCB6-huIgG1 E294A (antibody, name in EU numbering)
heavy: not shown
light: B1 light
notes: copies: 2 + 2
B4: chCB6-huIgG1 K326Q (antibody, name in EU numbering)
heavy: not shown
light: B1 light
notes: copies: 2 + 2
B5: chCB6-huIgG1 L251A (antibody, name in EU numbering)
heavy: not shown
light: B1 light
notes: copies: 2 + 2
B6: chCB6-huIgG1 K334N (antibody, name in EU numbering)
heavy: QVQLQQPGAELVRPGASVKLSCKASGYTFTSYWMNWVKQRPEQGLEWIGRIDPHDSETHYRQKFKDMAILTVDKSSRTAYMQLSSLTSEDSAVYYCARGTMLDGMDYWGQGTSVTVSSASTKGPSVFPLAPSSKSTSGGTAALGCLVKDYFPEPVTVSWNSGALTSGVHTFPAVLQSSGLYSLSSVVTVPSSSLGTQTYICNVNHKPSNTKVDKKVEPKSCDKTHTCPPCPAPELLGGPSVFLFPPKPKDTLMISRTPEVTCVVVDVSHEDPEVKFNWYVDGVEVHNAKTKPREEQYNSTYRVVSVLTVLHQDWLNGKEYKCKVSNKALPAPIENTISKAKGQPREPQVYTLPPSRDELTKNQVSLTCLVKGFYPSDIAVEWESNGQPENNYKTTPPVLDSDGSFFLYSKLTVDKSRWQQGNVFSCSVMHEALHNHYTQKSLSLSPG
light: B1 light
notes: copies: 2 + 2
B7: chCB6-huIgG1 K326D (antibody, name in EU numbering)
heavy: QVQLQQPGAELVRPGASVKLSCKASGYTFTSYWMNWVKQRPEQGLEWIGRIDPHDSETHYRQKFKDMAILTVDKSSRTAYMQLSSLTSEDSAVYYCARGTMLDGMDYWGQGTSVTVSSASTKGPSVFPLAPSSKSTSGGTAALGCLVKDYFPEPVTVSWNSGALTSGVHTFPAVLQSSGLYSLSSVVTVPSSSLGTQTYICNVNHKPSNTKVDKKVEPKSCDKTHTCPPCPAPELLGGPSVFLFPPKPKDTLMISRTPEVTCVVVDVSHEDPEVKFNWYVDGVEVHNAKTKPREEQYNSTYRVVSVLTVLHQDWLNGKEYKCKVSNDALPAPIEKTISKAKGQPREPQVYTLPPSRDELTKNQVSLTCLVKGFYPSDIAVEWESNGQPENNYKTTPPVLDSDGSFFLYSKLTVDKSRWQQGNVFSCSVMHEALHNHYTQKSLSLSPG
light: B1 light
notes: copies: 2 + 2
B8: chCB6-huIgG1 E333D (antibody, name in EU numbering)
heavy: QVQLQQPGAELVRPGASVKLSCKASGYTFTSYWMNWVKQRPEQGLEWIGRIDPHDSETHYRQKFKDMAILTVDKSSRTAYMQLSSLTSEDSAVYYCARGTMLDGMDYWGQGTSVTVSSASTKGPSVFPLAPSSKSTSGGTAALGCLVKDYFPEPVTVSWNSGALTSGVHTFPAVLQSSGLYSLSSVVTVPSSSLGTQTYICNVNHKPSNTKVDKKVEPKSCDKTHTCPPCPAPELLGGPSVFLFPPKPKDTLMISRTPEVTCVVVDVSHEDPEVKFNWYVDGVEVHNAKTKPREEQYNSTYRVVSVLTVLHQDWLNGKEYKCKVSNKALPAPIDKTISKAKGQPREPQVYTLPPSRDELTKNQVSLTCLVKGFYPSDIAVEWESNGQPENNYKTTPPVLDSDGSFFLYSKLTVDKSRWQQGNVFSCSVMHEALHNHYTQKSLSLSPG
light: B1 light
notes: copies: 2 + 2
B9: chCB6-huIgG1 K334E (antibody, name in EU numbering)
heavy: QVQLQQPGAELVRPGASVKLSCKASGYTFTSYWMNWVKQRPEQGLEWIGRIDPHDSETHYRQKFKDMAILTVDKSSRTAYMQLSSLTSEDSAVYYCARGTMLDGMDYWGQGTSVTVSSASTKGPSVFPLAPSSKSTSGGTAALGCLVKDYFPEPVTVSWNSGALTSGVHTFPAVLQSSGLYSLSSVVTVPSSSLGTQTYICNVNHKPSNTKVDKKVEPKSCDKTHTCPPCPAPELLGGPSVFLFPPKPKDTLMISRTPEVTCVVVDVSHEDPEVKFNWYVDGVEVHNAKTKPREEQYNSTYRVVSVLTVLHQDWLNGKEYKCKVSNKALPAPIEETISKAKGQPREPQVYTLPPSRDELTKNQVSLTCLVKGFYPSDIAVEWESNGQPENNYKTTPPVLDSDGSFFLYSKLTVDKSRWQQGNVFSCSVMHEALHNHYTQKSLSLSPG
light: B1 light
notes: copies: 2 + 2
B10: chCB6-huIgG1 K334R (antibody, name in EU numbering)
heavy: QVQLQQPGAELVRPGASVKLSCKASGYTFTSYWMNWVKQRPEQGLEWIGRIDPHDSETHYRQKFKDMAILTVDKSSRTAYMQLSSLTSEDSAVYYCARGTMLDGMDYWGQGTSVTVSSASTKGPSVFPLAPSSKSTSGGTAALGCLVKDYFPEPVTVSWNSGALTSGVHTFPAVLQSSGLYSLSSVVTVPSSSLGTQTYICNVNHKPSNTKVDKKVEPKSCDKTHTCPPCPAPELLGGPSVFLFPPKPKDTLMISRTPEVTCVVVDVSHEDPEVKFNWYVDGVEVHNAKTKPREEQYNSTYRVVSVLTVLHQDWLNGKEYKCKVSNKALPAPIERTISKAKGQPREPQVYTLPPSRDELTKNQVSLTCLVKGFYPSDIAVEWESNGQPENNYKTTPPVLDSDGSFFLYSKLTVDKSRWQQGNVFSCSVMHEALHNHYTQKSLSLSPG
light: B1 light
notes: copies: 2 + 2
B11: chCB6-huIgG1 Y296S (antibody, name in EU numbering)
heavy: not shown
light: B1 light
notes: copies: 2 + 2
B12: chCB6-huIgG1 K334V (antibody, name in EU numbering)
heavy: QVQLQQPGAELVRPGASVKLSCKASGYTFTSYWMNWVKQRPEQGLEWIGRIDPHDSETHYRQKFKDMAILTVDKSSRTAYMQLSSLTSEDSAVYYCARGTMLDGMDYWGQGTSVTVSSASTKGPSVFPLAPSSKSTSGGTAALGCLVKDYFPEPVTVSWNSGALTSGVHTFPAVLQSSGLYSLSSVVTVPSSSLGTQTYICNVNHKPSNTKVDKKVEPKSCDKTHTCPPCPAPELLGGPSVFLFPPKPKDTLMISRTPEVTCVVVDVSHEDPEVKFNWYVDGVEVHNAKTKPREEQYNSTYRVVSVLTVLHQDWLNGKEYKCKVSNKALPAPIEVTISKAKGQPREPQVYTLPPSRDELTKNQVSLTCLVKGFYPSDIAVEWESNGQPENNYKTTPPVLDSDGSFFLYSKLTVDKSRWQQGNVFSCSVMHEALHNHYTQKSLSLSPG
light: B1 light
notes: copies: 2 + 2
B13: chCB6-huIgG1 A378Q (antibody, name in EU numbering)
heavy: not shown
light: B1 light
notes: copies: 2 + 2
B14: chCB6-huIgG1 D376R (antibody, name in EU numbering)
heavy: not shown
light: B1 light
notes: copies: 2 + 2
B15: chCB6-huIgG1 H435A (antibody, name in EU numbering)
heavy: not shown
light: B1 light
notes: copies: 2 + 2
B16: chCB6-huIgG1 A378R (antibody, name in EU numbering)
heavy: not shown
light: B1 light
notes: copies: 2 + 2
B17: chCB6-huIgG1 L251G (antibody, name in EU numbering)
heavy: not shown
light: B1 light
notes: copies: 2 + 2
B18: chCB6-huIgG1 H435S (antibody, name in EU numbering)
heavy: not shown
light: B1 light
notes: copies: 2 + 2
B19: chCB6-huIgG1 H435G (antibody, name in EU numbering)
heavy: not shown
light: B1 light
notes: copies: 2 + 2
B20: chCB6-huIgG1 A378H (antibody, name in EU numbering)
heavy: not shown
light: B1 light
notes: copies: 2 + 2
B21: chCB6-huIgG1 L251S (antibody, name in EU numbering)
heavy: not shown
light: B1 light
notes: copies: 2 + 2
B22: chCB6-huIgG1 A378K (antibody, name in EU numbering)
heavy: not shown
light: B1 light
notes: copies: 2 + 2
B23: chCB6-huIgG1 D376H (antibody, name in EU numbering)
heavy: not shown
light: B1 light
notes: copies: 2 + 2
B24: chCB6-huIgG1 D270E (antibody, name in EU numbering)
heavy: not shown
light: B1 light
notes: copies: 2 + 2
B25: chCB6-huIgG1 D265E (antibody, name in EU numbering)
heavy: not shown
light: B1 light
notes: copies: 2 + 2
B26: chCB6-huIgG1 K326E (antibody, name in EU numbering)
heavy: not shown
light: B1 light
notes: copies: 2 + 2
B27: chCB6-huIgG1 K326N (antibody, name in EU numbering)
heavy: not shown
light: B1 light
notes: copies: 2 + 2
B28: chCB6-huIgG1 Y296F (antibody, name in EU numbering)
heavy: not shown
light: B1 light
notes: copies: 2 + 2
B29: chCB6-huIgG1 E293D (antibody, name in EU numbering)
heavy: not shown
light: B1 light
notes: copies: 2 + 2
B30: chCB6-huIgG1 F241H (antibody, name in EU numbering)
heavy: not shown
light: B1 light
notes: copies: 2 + 2
B31: chCB6-huIgG1 K338M (antibody, name in EU numbering)
heavy: not shown
light: B1 light
notes: copies: 2 + 2
B32: chCB6-huIgG1 L234D (antibody, name in EU numbering)
heavy: not shown
light: B1 light
notes: copies: 2 + 2
B33: chCB6-huIgG1 I332D/A378Y (antibody, name in EU numbering)
heavy: not shown
light: B1 light
notes: copies: 2 + 2
B34: chCB6-huIgG1 S239D/A378K (antibody, name in EU numbering)
heavy: not shown
light: B1 light
notes: copies: 2 + 2
B35: chCB6-huIgG1 I332D/H435S (antibody, name in EU numbering)
heavy: not shown
light: B1 light
notes: copies: 2 + 2
B36: chCB6-huIgG1 S239D/A378F (antibody, name in EU numbering)
heavy: not shown
light: B1 light
notes: copies: 2 + 2
B37: chCB6-huIgG1 I332D/A378K (antibody, name in EU numbering)
heavy: not shown
light: B1 light
notes: copies: 2 + 2
B38: chCB6-huIgG1 I332D/A378W (antibody, name in EU numbering)
heavy: not shown
light: B1 light
notes: copies: 2 + 2
B39: chCB6-huIgG1 I332D/H435G (antibody, name in EU numbering)
heavy: not shown
light: B1 light
notes: copies: 2 + 2
B40: chCB6-huIgG1 I332D/A378F (antibody, name in EU numbering)
heavy: not shown
light: B1 light
notes: copies: 2 + 2

The binders below were run against T1, human C1q (Sigma C0660) (human, UniProt P02745 23-245; P02746 28-253; P02747 29-245) (assay: C1q ELISA on CD2, purified).
T1 construct: Bought protein; also called complement protein C1q
T1 sequence (P02745 23-245 limits assumed, chain 1 of 3): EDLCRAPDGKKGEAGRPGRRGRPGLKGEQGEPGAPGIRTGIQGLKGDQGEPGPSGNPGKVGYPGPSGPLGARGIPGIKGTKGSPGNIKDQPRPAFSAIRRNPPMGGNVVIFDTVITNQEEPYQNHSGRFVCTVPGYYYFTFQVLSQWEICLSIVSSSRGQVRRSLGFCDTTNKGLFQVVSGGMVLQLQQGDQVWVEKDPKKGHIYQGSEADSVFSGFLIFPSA
T1 sequence (P02746 28-253 limits assumed, chain 2 of 3): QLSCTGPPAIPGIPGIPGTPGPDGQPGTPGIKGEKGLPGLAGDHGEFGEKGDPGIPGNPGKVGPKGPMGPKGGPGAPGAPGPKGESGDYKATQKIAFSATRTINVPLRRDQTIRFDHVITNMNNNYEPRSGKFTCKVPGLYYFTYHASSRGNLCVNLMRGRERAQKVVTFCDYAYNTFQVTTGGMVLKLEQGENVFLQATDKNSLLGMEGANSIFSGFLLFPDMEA
T1 sequence (P02747 29-245 limits assumed, chain 3 of 3): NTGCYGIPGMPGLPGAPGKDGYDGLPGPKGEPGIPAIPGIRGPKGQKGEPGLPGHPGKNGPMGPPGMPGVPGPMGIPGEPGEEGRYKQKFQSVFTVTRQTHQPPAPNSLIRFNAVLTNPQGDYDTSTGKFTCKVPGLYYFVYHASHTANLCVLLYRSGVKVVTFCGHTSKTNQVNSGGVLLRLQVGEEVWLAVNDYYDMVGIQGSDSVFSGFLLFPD
Method: (§1) The C1q binding assay was performed by coating 96 well Maxisorb ELISA plates (Nalge-Nunc Rochester, N.Y., USA) with 50 μl recombinant soluble human CD2 at 10 μg/ml overnight at 4° C. in PBS. The wells were aspirated and washed three times with wash buffer (PBS, 0.05% Tween 20) and blocked for >1 h with 200 μ/well of block/diluent buffer (0.1 M Na₂HPO₄, pH 7, 0.1 M NaCl, 0.05% Tween 20, 0.1% gelatin). The antibody to be tested was diluted in block/diluent buffer starting at 15 μg/ml with 3-fold dilutions. 50 μl were added per well, and the plates incubated for 2 h at room temperature. After aspirating and washing as above, 50 μl/well of 2 μg/ml of Sigma human C1q (C0660) diluted in block/diluent buffer was added and incubated for 1.5 h at room temperature. After aspirating and washing as above, 50 μl/well of chicken anti human C1q (Cedarlane laboratories CL2101AP), diluted 2,000-fold in block/diluent buffer, was added. After incubation for 1.5 h at room temperature, the wells were aspirated and washed as above. 50 μl/well of donkey F(ab′)₂ anti chicken IgY HRP conjugate (Jackson ImmunoResearch 703-036-155) diluted to 1:5,000 in block/diluent was then added, and the wells incubated for 1 h at room temperature. After aspirating and washing as above, 100 μl TMB substrate (420 μM TMB, 0.004% H₂O₂ in 0.1 M sodium acetate/citric acid buffer, pH 4.9) was added and incubated for 2 min before the reaction was stopped with 100 μl 2 N sulfuric acid. The absorbance was read at 450 nm with a Softmax P instrument, and Softmax software was used to determine the relative binding affinity (C value) with a 4-parameter fit.

| binding result | fold decrease in binding vs WT [fold] | fold increase in binding vs WT [fold] | Binder |
| --- | --- | --- | --- |
| binds |  |  | B1 |
| binds |  |  | B2 |
|  | 3 |  | B3 |
| binds |  |  | B4 |
|  |  | 2 | B5 |
| binds |  |  | B6 |
|  |  | 2 | B7 |
|  | 2 |  | B8 |
| binds |  |  | B9 |
|  |  | 4 | B10 |
|  | 5 |  | B11 |
| binds |  |  | B12 |

These binders were tested against T1, human C1q (Sigma C0660) (assay: C1q ELISA on CD2, transient).
Method: as §1

| binding result | fold increase in binding vs WT [fold] | fold decrease in binding vs WT [fold] | Binder |
| --- | --- | --- | --- |
| binds |  |  | B13 |
|  | 3 |  | B5 |
| binds |  |  | B14 |
| binds |  |  | B15 |
| binds |  |  | B16 |
|  | 3 |  | B17 |
|  | 4 |  | B18 |
|  | 4 |  | B19 |
|  |  | 4 | B11 |
| binds |  |  | B20 |
| binds |  |  | B21 |
|  | 4 |  | B22 |
| binds |  |  | B23 |

The binders below were run against T2, human FcγRI (CD64) on IFNγ-activated U937 cells (human, UniProt P12314 16-374) (assay: CD64 bridging assay, purified).
T2 construct: whole, on cells; also called FcγR1
T2 sequence (P12314 16-374): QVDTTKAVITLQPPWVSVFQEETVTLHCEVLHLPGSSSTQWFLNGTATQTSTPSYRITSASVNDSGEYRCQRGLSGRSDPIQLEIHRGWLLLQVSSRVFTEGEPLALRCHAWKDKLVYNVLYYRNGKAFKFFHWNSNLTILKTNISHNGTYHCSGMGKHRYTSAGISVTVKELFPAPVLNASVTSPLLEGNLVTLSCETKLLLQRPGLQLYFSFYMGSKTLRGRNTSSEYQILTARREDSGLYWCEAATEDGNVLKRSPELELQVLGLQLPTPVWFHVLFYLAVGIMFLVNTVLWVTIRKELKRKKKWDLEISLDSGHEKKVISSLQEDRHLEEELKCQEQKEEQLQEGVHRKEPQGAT

| binding result | fold decrease in binding vs WT [fold] | Binder |
| --- | --- | --- |
| binds |  | B1 |
| binds |  | B2 |
| binds |  | B4 |
| binds |  | B6 |
| binds |  | B7 |
| binds |  | B8 |
| binds |  | B9 |
|  | 5 | B10 |
| binds |  | B12 |

The binders below were run against T3, human FcγRIII (CD16), CD16a (F158), on CD16-transfected Jurkat cells (human, UniProt P08637 17-254) (assay: CD16 bridging assay, transient).
T3 construct: whole, on cells
T3 sequence (P08637 17-254): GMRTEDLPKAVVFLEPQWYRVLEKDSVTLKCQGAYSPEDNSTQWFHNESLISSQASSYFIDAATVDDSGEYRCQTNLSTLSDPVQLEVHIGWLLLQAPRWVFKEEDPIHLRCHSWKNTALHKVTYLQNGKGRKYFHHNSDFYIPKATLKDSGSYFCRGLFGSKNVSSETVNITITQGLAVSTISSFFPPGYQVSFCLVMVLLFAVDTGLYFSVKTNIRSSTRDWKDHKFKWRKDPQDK

| binding result | fold decrease in binding vs WT [fold] | fold increase in binding vs WT [fold] | Binder |
| --- | --- | --- | --- |
| binds |  |  | B1 |
| binds |  |  | B2 |
| binds |  |  | B24 |
| no binding |  |  | B25 |
| binds |  |  | B4 |
| binds |  |  | B6 |
| binds |  |  | B7 |
| binds |  |  | B8 |
| binds |  |  | B9 |
| binds |  |  | B26 |
| binds |  |  | B27 |
|  | 2 |  | B28 |
| binds |  |  | B10 |
|  | 4 |  | B29 |
|  | 9 |  | B30 |
|  | 6 |  | B31 |
|  |  | 3 | B12 |
|  | 4 |  | B32 |

Biological target: T3, human FcγRIII (CD16), CD16a (F158), on …
Experiment: CD16 bridging assay, transient
Remark: another data set of the same source

| fold increase in binding vs WT [fold] | binding result | Binder |
| --- | --- | --- |
| 5 |  | B33 |
| 5 |  | B34 |
|  | binds | B35 |
| 5 |  | B36 |
|  | binds | B37 |
| 5 |  | B38 |
|  | binds | B39 |
| 5 |  | B40 |

Biological target: T3, human FcγRIII (CD16), CD16a (F158), on …
Experiment: CD16 bridging assay, transient
Remark: another data set of the same source

| binding result | fold decrease in binding vs WT [fold] | Binder |
| --- | --- | --- |
| binds |  | B13 |
| binds |  | B5 |
|  | 9 | B14 |
|  | 4 | B15 |
| binds |  | B16 |
| no binding |  | B17 |
|  | 5 | B18 |
|  | 4 | B19 |
|  | 6 | B20 |
| binds |  | B21 |
| binds |  | B22 |
|  | 6 | B23 |
